# Patent US20230348616A1 (MIE UNIVERSITY, published 2023)
# B1: NY-R119 (scFv)
# scFv: EVQLVESGGGVVQPGRSLTPSCSASGFSIRSYDIHWVRQAPGKGLEWVATISYDGSQKYFADSVKGRFTIFRDESENMVYLQMSGLRVEDTAVYHCARGSSGHYEAFDIWGQGTMVTVSSGGGGSGGGGSGGGGSQSVLTQPPSVSAAPGQKVTISCSGSSSNIGNNYVSWYQQLPGTAPKLLIYDNNKRPSGIPDRFSGSKSGTSATLGITGLQTGDEADYYCGTWDSSLSAPWVFGGGTKVTVL
# notes: Expressed in E. coli, culture solution used in the ELISA; also called ELISA-positive clone NY-R119; not shown: FLAG tag and His tag at the carboxyl terminus from the E. coli expression vector
# B2: NYA-2048 (scFv)
# scFv: GQVQLVESGGGVVQPGRSLRLSCAASGFSIRSYDMHWVRQAPGKGLEWVATISYDGSQKYYADSVKGRFTISRDNSKNTLYLQMSSLRAEDTAVYHCARGSSGHYEAFDIWGQGTLVTVSSGGGGSGGGGSGGGGSQSVLTQPPSASGTPGQRVTISCSGSSSNIGNWYVSWYQQLPGTAPKLLIYDNNKRPSGVPDRFSGSKSGTSASLAISGLQSEDEADYYCGTWDSSLSAPWVFGGGTKLTVLGAAAGAGGDYKDDDDKGAAAHHHHHH
# notes: also called NYA-2048 tag adduct
# B3: NYC-0008 (scFv)
# scFv: GEVQLVESGGGVVQPGGSLRLSCEASGFIFDDYAMHWVRQAPGKGLEWVSLISGDGDIIYYADSVKGRFTISRDNSKNSLYLQMNSLIIEDTALYYCAKDWVFGVVMTHYWYFGLDVWGQGTTVTVSSGGGGSGGGGSGGGGSDIQMTQSPSSLSASEGDRVTITCRASQSISTYLNWYQQKPGKAPKLLIYGASSLQSGVPSRFSGSGSGTDFTLTISSLQPEDFATYYCQQSYSTPPITFGQGTKVEIKGAAAGAGGDYKDDDDKGAAAHHHHHH
# notes: Captured by anti-His antibody in SPR; also called scFv of mAb28105P
# B4: NYZ-1010 (bispecific antibody, human IgG1, lambda, L234A L235A)
# chain 1: not shown
# chain 2: not shown
# light: NFMLTQPSSVSGVPGQRVTISCTGNTGNIGSNYVNWYQQLPGTAPKLLIYRDDKRPSGVPDRFSGSKSGTSASLAITGFQAEDEADYYCQSYSSGFIFGGGTKLTVLGQPKAAPSVTLFPPSSEELQANKATLVCLISDFYPGAVTVAWKADSSPVKAGVETTTPSKQSNNKYAASSYLSLTPEQWKSHRSYSCQVTHEGSTVEKTVAPTECS
# What was measured:
# [1] = molecular target: T1, HLA-A*0201/β2-microglobulin/NY-ESO peptide complex (human, biotinylated with E. coli biotin ligase at the added recognition sequence (biotinylated form used in the ELISA)); test: ELISA, biotinylated HLA/NY-ESO on NeutrAvidin, scFv from E. coli culture, anti-FLAG-HRP
# T1 construct: also called HLA/NY-ESO; HLA-A2/NY-ESO
# Method: The plate was washed 3 times with ELISA buffer, blocked with Blocker Casein (Thermo Fisher Scientific), and then washed 3 times with ELISA buffer. Thereafter, a culture solution of scFv-expressing E. coli was added, and the reaction was allowed to proceed at room temperature for 2 hours. After the resultant was washed 3 times with ELISA buffer, 50 μl of the horseradish peroxidase (HRP)-labeled anti-FLAG antibody (Sigma-Aldrich) diluted to 5,000-fold with ELISA buffer was added, and the reaction was allowed to proceed at room temperature for 1 hour.
# [2] = molecular target: T2, HLA-A2 / homologous peptide PRKD2 complex on T2 cells (human); test: flow cytometry, peptide-pulsed T2 cells
# T2 construct: whole, on cells; also called T2 cells supplemented with homologous peptide PRKD2
# [3] = molecular target: T3, HLA-A2 / homologous peptide DOLPP1 complex on T2 cells (human); test: flow cytometry, peptide-pulsed T2 cells
# T3 construct: whole, on cells; also called T2 cells supplemented with homologous peptide DOLPP1
# [4] = molecular target: T4, HLA-A2 / homologous peptide P2RY8 complex on T2 cells (human); test: flow cytometry, peptide-pulsed T2 cells
# T4 construct: whole, on cells; also called T2 cells supplemented with homologous peptide P2RY8
# [5] = molecular target: T5, HLA-A2 / homologous peptide CD163 complex on T2 cells (human); test: flow cytometry, peptide-pulsed T2 cells
# T5 construct: whole, on cells; also called T2 cells supplemented with homologous peptide CD163
# [6] = molecular target: T6, HLA-A2 / homologous peptide IL20RB complex on T2 cells (human); test: flow cytometry, peptide-pulsed T2 cells
# T6 construct: whole, on cells; also called T2 cells supplemented with homologous peptide IL20RB
# [7] = molecular target: T1, HLA-A*0201/β2-microglobulin/NY-ESO …; test: SPR (Biacore T200), scFv captured by anti-His antibody, HLA/NY-ESO as analyte, single cycle kinetics
# Method: With the use of Biacore T200, anti-HLA/NY-ESO scFv was captured as a ligand by the immobilized anti-His antibody, and the antigen was assayed as an analyte. As the antigen, HLA/NY-ESO prepared in 1)-1 was used. The anti-His antibody (His Capture kit, GE Healthcare) was immobilized on Sensor Chip CM5 (GE Healthcare) in accordance with the instructions of the kit. The anti-HLA/NY-ESO scFv constructs diluted to 0.5 μg/ml in HBS-EP+ (GE Healthcare) to be evaluated were brought into contact therewith at 10 μl/min for 60 seconds for immobilization. Thereafter, the samples were added to the HLA/NY-ESO analytes diluted to various levels with HBS-EP+ at a flow rate of 30 μl/min for 120 seconds and dissociation was assayed for 600 seconds.
# [8] = molecular target: T2, HLA-A2 / homologous peptide PRKD2 …; test: flow cytometry on peptide-pulsed T2 cells, scFv 100 nM
# Method: (§1) The cells were washed 2 times in PBS containing 5% FBS, immobilized with Mildform 10 N (FUJIFILM Wako Pure Chemical Corporation) overnight, and resuspended in PBS containing 5% FBS. The cell suspensions were subjected to detection using a flow cytometer (CantoII, Becton Dickinson). […] The standardized gMFI indicating the binding affinity of each scFv standardized with the amount of the HLA/peptide complex on the T2 cells was determined in accordance with the following equation.
# (§2) The 9-mer peptide shown in FIG. 2A was selected as a homologous peptide for evaluation of binding specificity of anti-HLA/NY-ESO scFv. […] The standardized gMFI indicating the binding affinity of each scFv standardized with the amount of the HLA/peptide complex on the T2 cells was determined in accordance with the following equation.
# [9] = molecular target: T3, HLA-A2 / homologous peptide DOLPP1 …; test: as above
# Method: as §1, §2
# [10] = molecular target: T4, HLA-A2 / homologous peptide P2RY8 …; test: as above
# Method: as §1, §2
# [11] = molecular target: T7, HLA-A2/NY-ESO peptide complex presented on cells (human); test: as above
# T7 construct: whole, on cells; also called HLA/NY-ESO; T2 cells supplemented with the NY-ESO peptide
# Method: as §1, §2
# [12] = molecular target: T5, HLA-A2 / homologous peptide CD163 …; test: as above
# Method: as §1, §2
# [13] = molecular target: T6, HLA-A2 / homologous peptide IL20RB …; test: as above
# Method: as §1, §2
# [14] = molecular target: T8, gp100 (human); test: as above
# T8 construct: cell surface;cell surface complex; also called HLA-A2 / gp100 peptide complex on T2 cells
# Method: as §1, §2
# [15] = molecular target: T7, HLA-A2/NY-ESO peptide complex presented …; test: as above; remark: listed apart in the source
# [16] = molecular target: T8, gp100; test: as above; remark: listed apart in the source
# [17] = molecular target: T1, HLA-A*0201/β2-microglobulin/NY-ESO …; test: SPR (Biacore T200), scFv captured by anti-His antibody, HLA/NY-ESO as analyte, single cycle kinetics; remark: listed apart in the source
# Method: With the use of Biacore T200, the anti-HLA/NY-ESO scFv was captured as a ligand to the immobilized anti-His antibody, and the antigen was assayed as an analyte. As the antigen, HLA/NY-ESO prepared in 1)-1 was used. The anti-His antibody (His Capture kit, Cytiva) was immobilized on Sensor Chip CM5 (Cytiva) in accordance with the instructions of the kit. The anti-HLA/NY-ESO scFv constructs diluted to 0.5 μg/ml in HBS-EP+(Cytiva) to be evaluated were brought into contact therewith at 10 μl/min for 60 seconds for immobilization. Thereafter, the samples were added to the HLA/NY-ESO analytes diluted to various levels with HBS-EP+ at a flow rate of 30 μl/min for 120 seconds and dissociation was assayed for 600 seconds.
# [18] = molecular target: T9, gp100 (human); test: flow cytometry, CD3e knockout T2 cells pulsed with 50 µM peptide, antibody at 100 nM, PE anti-human IgG; gMFI standardized to the HLA/peptide amount; DMSO-only cells 1.19
# T9 construct: cell surface; unrelated control peptide; also called HLA-A2 / gp100 peptide complex on CD3e knockout T2 cells
# From the text: (§3) The cells were washed 2 times in PBS containing 5% FBS, immobilized with Mildform 10 N (FUJIFILM Wako Pure Chemical Corporation) overnight, and resuspended in PBS containing 5% FBS. The cell suspensions were subjected to detection using a flow cytometer (CantoII, Becton Dickinson). […] The standardized gMFI indicating the binding affinity of each Fc-conjugated anti-HLA-A2/NY-ESO-anti-CD3 bispecific molecule standardized with the amount of the HLA/peptide complex on the CD3e knockout T2 cells was determined in accordance with the following equation.
# (§4) The standardized gMFI indicating the binding affinity of each Fc-conjugated anti-HLA-A2/NY-ESO-anti-CD3 bispecific molecule standardized with the amount of the HLA/peptide complex on the CD3e knockout T2 cells was determined in accordance with the following equation.
# [19] = molecular target: T2, HLA-A2 / homologous peptide PRKD2 …; test: as above
# From the text: as §3, §4
# [20] = molecular target: T3, HLA-A2 / homologous peptide DOLPP1 …; test: as above
# From the text: as §3, §4
# [21] = molecular target: T4, HLA-A2 / homologous peptide P2RY8 …; test: as above
# From the text: as §3, §4
# [22] = molecular target: T7, HLA-A2/NY-ESO peptide complex presented …; test: as above
# From the text: as §3, §4
# [23] = molecular target: T5, HLA-A2 / homologous peptide CD163 …; test: as above
# From the text: as §3, §4
# [24] = molecular target: T6, HLA-A2 / homologous peptide IL20RB …; test: as above
# From the text: as §3, §4
# [25] = molecular target: T1, HLA-A*0201/β2-microglobulin/NY-ESO …; test: SPR (Biacore T200), bispecific captured by anti-human IgG (Fc) antibody, HLA/NY-ESO as analyte, single cycle kinetics
# Method: With the use of Biacore T200, various Fc-conjugated anti-HLA/NY-ESO-anti-CD3 bispecific molecules were captured as ligands to the immobilized anti-human IgG (Fc) antibody, and the antigen was assayed as an analyte. […] The anti-human IgG (Fc) antibody (Human antibody Capture kit, GE Healthcare) was immobilized on Sensor Chip CM5 (GE Healthcare) in accordance with the instructions of the kit. The Fc-conjugated anti-HLA/NY-ESO-anti-CD3 bispecific molecules diluted to 0.5 g/ml in HBS-EP+(GE Healthcare) to be evaluated were brought into contact therewith at 10 μl/min for 60 seconds for immobilization. Thereafter, the samples were added to the HLA/NY-ESO analytes diluted to various levels with HBS-EP+ at a flow rate of 30 μl/min for 120 seconds and dissociation was assayed for 600 seconds.
# [26] = molecular target: T9, gp100; test: flow cytometry, CD3e knockout T2 cells pulsed with 50 µM peptide, antibody at 100 nM, PE anti-human IgG; gMFI standardized to the HLA/peptide amount; DMSO-only cells 1.15
# Method: (§5) The cells were washed 2 times in PBS containing 5% FBS, PE conjugated F(ab′)2 Fragment Anti-Human IgG (Jackson Immuno Research Laboratories) diluted with PBS containing 5% FBS was added at 25 μl/well, and the resultant was allowed to stand at 4° C. for 30 minutes. The cells were washed 2 times in PBS containing 5% FBS, immobilized with Mildform 10 N (FUJIFILM Wako Pure Chemical Corporation) overnight, and resuspended in PBS containing 5% FBS. […] The cells were washed 2 times in PBS containing 5% FBS, immobilized with Mildform 10 N (FUJIFILM Wako Pure Chemical Corporation) overnight, and resuspended in PBS containing 5% FBS. The cell suspensions were subjected to detection using a flow cytometer (CantoII, Becton Dickinson). […] The standardized gMFI indicating the binding affinity of each Fc-conjugated anti-HLA-A2/NY-ESO-anti-CD3 bispecific molecule standardized with the amount of the HLA/peptide complex on the CD3e knockout T2 cells was determined in accordance with the following equation.
# [27] = molecular target: T10, 1F (human); test: as above
# T10 construct: cell surface; also called HLA-A2 / point-mutant NY-ESO peptide 1F complex on CD3e knockout T2 cells
# Method: as §5
# [28] = molecular target: T7, HLA-A2/NY-ESO peptide complex presented …; test: as above
# Method: as §5
# [29] = molecular target: T7, HLA-A2/NY-ESO peptide complex presented …; test: cell-based or functional assay
# [30] = molecular target: T7, HLA-A2/NY-ESO peptide complex presented …; test: cell-based or functional assay; remark: listed apart in the source
binder,measurement,setting,value
B1,binding result,[1],binds
B2,binding result,[2],no binding (tested: 100 nM)
same,binding result,[3],no binding (tested: 100 nM)
same,binding result,[4],no binding (tested: 100 nM)
same,binding result,[5],no binding (tested: 100 nM)
same,binding result,[6],no binding (tested: 100 nM)
same,Kd,[7],6.3 nM
same,standardized gMFI,[8],0.35
same,standardized gMFI,[9],0.44
same,standardized gMFI,[10],0.69
same,standardized gMFI,[11],8.82
same,standardized gMFI,[12],0.52
same,standardized gMFI,[13],0.48
same,standardized gMFI,[14],0.34
same,standardized gMFI,[15],6.58
same,standardized gMFI,[16],0.41
B3,Kd,[17],7.9 nM
B4,standardized gMFI,[18],0.54
same,standardized gMFI,[19],0.54
same,standardized gMFI,[20],0.7
same,standardized gMFI,[21],0.95
same,standardized gMFI,[22],44.4
same,standardized gMFI,[23],0.67
same,standardized gMFI,[24],0.88
same,Kd,[25],1.9 nM
same,standardized gMFI,[26],0.53
same,standardized gMFI,[27],0.86
same,standardized gMFI,[28],43.3
same,"EC50 of cytotoxicity on NCI-H1703 cells (51Cr release, human PBMC effectors)",[29],2.56 nM
same,"EC50 of cytotoxicity on U266B1 cells (51Cr release, human PBMC effectors)",[30],0.96 nM
